Experimental data taken from patent US20220315554A1, “COMPOUNDS COMPRISING A […] LIGAND AND USE THEREOF” (priority 2019, published 2022).

Legend:
mu (MOP) (h) (human) = target: mu (MOP) (h) (human (printed (h))) (UniProt P35372); assay: radioligand displacement, reference compound of the panel
delta (DOP) (h) (human) = target: delta (DOP) (h) (human (printed (h))) (UniProt P41143); assay: as above
[1] = target: recombinant human PREP (R&D systems, #4308-SE) (human)
[2] = target: Recombinant human DPP4 (R&D systems, #9168-SE) (human)
[3] = target: Ca2+ channel (L, dihydropyridine site); assay: radioligand displacement, 10 uM compound
MAO-A = assay: radioligand displacement, 10 uM compound
NMDA = assay: radioligand displacement, 10 uM compound
BZD (central) = assay: radioligand displacement, 10 uM compound
Na+ channel (site 2) = assay: radioligand displacement, 10 uM compound
KV channel [4] = assay: radioligand displacement, 10 uM compound
[5] = target: COX1(h) (human (printed (h))) (UniProt P23219)
[6] = target: T1, COX2(h) (human (printed (h))) (UniProt P35354)
T1 sequence: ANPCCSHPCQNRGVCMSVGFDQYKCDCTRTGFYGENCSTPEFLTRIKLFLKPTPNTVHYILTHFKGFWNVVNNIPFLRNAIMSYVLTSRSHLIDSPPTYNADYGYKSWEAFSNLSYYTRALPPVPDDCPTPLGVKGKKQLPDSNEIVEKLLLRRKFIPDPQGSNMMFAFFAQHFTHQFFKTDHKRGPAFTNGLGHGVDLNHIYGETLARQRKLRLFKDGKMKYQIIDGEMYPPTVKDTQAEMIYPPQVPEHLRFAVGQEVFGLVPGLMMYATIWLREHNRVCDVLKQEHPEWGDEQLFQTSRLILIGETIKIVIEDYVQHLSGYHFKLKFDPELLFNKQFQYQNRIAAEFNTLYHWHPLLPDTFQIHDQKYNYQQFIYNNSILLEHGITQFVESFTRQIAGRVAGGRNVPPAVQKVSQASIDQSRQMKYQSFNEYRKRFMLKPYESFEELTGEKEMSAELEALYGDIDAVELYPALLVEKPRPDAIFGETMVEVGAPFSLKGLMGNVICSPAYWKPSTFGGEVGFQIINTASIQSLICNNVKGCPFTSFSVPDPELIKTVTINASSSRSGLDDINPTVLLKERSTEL

[7] = target: Acetylcholinesterase (h) (human (printed (h))) (UniProt P22303)
[8] = target: PDE3A (h) (human (printed (h))) (UniProt Q14432)
[9] = target: Lck kinase (h) (human (printed (h))) (UniProt P06239)
[10] = target: PDE4D2 (h) (human (printed (h))) (UniProt Q08499)
KV channel [11] = assay: radioligand displacement, reference compound of the panel

PDE4D2 (h) (human (printed (h))), sequence (Q08499 303-809): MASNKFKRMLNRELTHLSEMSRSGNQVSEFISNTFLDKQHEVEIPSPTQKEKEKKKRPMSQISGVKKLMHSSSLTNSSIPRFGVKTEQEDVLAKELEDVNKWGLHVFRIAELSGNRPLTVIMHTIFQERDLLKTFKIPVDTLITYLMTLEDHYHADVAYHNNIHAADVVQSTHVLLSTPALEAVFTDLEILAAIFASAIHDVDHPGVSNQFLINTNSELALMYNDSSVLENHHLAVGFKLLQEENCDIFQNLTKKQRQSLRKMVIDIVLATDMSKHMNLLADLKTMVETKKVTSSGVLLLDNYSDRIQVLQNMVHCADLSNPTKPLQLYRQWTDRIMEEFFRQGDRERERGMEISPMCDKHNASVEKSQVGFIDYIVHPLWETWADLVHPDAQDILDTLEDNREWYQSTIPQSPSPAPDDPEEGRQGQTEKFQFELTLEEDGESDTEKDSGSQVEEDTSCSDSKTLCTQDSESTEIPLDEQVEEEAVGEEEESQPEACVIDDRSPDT
COX1(h) (human (printed (h))), sequence (P23219 24-599 limits assumed): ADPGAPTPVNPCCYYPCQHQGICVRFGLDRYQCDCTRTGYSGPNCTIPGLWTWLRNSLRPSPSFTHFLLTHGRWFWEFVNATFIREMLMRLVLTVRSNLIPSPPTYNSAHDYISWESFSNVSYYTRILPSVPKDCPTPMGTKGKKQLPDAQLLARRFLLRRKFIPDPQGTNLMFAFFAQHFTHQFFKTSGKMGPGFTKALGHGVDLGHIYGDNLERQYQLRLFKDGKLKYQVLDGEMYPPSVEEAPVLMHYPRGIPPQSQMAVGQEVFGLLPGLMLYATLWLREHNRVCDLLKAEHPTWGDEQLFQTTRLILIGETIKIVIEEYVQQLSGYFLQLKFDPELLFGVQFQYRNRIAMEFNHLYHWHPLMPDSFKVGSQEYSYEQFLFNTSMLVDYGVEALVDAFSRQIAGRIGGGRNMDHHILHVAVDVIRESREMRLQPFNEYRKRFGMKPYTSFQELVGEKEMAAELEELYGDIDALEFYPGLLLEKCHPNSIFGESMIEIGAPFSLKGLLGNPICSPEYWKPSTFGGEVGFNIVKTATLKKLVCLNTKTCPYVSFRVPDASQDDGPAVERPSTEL

Work on DAMGO (peptide) yielded a Ki (mu (MOP) (h) (human)) of 0.37 nM.
DPDPE (peptide) gave a Ki (delta (DOP) (h) (human)) of 1.2 nM.
With “Hex-[Cys(3MeBn)-Pro-Pro-Thr-Glu-Phe-Cys]-Asp-His-Phe-Arg-Asp-Ttds-Lys(DOTA)-NH2 (3BP-3105) (peptide)” the pIC50 (PREP) [1] was < 6 pIC50 and the pIC50 (DPP4) [2] was < 6 pIC50.
With “Hex-[Cys(tMeBn(DOTA-AET))-Pro-Pro-Thr-Gln-Phe-Cys]-OH (3BP-3554) (peptide)” the % Inhibition of Specific Binding [3] was 54%, the % Inhibition of Specific Binding (MAO-A) was -25% and the % Inhibition of Specific Binding (NMDA) was 1%. For the same substance, the % Inhibition of Specific Binding (BZD (central)) was 5%, the % Inhibition of Specific Binding (Na+ channel (site 2)) was 14% and the % Inhibition of Specific Binding (KV channel [4]) was 4%. For the same substance, the % inhibition of control enzyme activity [5] was 8%, the % inhibition of control enzyme activity [6] was -22% and the % inhibition of control enzyme activity [7] was 1%. The % inhibition of control enzyme activity [8] was -37%, the % inhibition of control enzyme activity [9] was -4% and the % inhibition of control enzyme activity [10] was -4%.
With “Hex-[Cys(tMeBn(DOTA-PP))-Pro-Pro-Thr-Gln-Phe-Cys]-Asp-NH2 (3BP-3407) (peptide)” the % Inhibition of Specific Binding [3] was 42%, the % Inhibition of Specific Binding (MAO-A) was -5% and the % Inhibition of Specific Binding (NMDA) was 9%. For the same substance, the % Inhibition of Specific Binding (BZD (central)) was -9%, the % Inhibition of Specific Binding (Na+ channel (site 2)) was -7% and the % Inhibition of Specific Binding (KV channel [4]) was -5%. The % inhibition of control enzyme activity [5] was 10%, the % inhibition of control enzyme activity [6] was -14% and the % inhibition of control enzyme activity [7] was -6%. The % inhibition of control enzyme activity [8] was -3%, the % inhibition of control enzyme activity [9] was 10% and the % inhibition of control enzyme activity [10] was -5%. The pIC50 (PREP) [1] was < 6 pIC50 and the pIC50 (DPP4) [2] was < 6 pIC50.
With “[3MeBn-Spa-Pro-Pro-Thr-Gln-Phe-Cys]-Asp-NH2 (3BP-3419) (peptide)” the pIC50 (PREP) [1] was < 6 pIC50 and the pIC50 (DPP4) [2] was < 6 pIC50.
Substance “alpha-dendrotoxin (from UniProt P00980) (peptide)” has a Ki (KV channel [11]) of 0.097 nM.
